{"source": "patent US20240294572A1", "about": "“Antimicrobial Peptides” (priority 2021, published 2024)", "key": {"[1]": {"target": "T1, apolipoprotein A-I (mouse), Q00623", "T1 chain": "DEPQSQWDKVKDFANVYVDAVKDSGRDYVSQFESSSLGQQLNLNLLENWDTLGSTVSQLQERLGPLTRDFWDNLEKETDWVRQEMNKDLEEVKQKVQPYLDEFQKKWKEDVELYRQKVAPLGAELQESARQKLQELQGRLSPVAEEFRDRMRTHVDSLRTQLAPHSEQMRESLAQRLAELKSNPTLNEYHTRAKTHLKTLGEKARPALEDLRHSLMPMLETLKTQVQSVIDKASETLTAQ", "experiment": "peptide on Dynabeads, 5% mouse plasma, LC-MS/MS"}, "[2]": {"target": "T2, apolipoprotein A-IV (mouse), P06728", "T2 chain": "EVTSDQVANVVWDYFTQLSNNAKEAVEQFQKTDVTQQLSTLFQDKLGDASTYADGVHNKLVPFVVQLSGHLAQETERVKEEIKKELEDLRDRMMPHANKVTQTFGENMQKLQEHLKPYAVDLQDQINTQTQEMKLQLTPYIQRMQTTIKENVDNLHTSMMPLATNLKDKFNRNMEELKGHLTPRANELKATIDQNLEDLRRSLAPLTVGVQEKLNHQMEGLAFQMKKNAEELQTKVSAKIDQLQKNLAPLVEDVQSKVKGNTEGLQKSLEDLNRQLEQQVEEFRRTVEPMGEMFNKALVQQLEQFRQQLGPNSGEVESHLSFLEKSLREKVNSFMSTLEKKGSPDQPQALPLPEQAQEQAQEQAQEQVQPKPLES", "experiment": "peptide on Dynabeads, 5% mouse plasma, LC-MS/MS"}, "[3]": {"target": "T3, apolipoprotein C-I (mouse), P34928", "T3 chain": "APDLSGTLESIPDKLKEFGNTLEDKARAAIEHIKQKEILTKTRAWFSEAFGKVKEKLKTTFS", "experiment": "peptide on Dynabeads, 5% mouse plasma, LC-MS/MS"}, "[4]": {"target": "serum albumin (mouse), P07724", "sequence (P07724 25-608 limits assumed)": "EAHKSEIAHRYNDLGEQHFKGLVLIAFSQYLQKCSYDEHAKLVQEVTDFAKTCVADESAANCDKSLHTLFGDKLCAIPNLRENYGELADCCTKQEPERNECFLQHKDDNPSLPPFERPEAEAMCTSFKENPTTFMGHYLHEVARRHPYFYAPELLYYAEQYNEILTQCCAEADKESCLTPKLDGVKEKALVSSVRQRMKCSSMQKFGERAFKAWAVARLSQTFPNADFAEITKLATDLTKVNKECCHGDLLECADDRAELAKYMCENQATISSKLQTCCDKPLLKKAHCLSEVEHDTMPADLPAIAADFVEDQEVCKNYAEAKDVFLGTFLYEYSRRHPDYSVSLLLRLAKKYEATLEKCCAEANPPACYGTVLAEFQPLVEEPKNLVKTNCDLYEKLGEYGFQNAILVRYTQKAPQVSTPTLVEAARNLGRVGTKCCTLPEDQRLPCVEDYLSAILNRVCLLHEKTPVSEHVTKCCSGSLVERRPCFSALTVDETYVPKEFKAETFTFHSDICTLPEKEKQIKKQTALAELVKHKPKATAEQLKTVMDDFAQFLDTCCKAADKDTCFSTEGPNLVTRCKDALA", "experiment": "peptide on Dynabeads, 5% mouse plasma, LC-MS/MS"}, "[5]": {"target": "T1, apolipoprotein A-I (mouse), Q00623", "experiment": "ratio of MS intensity on L-form beads to that on D-form (C10-KR8d) beads"}, "[6]": {"target": "T2, apolipoprotein A-IV (mouse), P06728", "experiment": "ratio of MS intensity on L-form beads to that on D-form (C10-KR8d) beads"}, "[7]": {"target": "T3, apolipoprotein C-I (mouse), P34928", "experiment": "ratio of MS intensity on L-form beads to that on D-form (C10-KR8d) beads"}, "[8]": {"target": "serum albumin (mouse), P07724", "experiment": "ratio of MS intensity on L-form beads to that on D-form (C10-KR8d) beads"}}, "data": [{"binder": "CKRIWQRIK (modifications not checked)", "values": [{"measurement": "intensity (mass spectrometry)", "setting": "[1]", "value": "4.29e+09"}, {"measurement": "intensity (mass spectrometry)", "setting": "[2]", "value": "3.21e+08"}, {"measurement": "intensity (mass spectrometry)", "setting": "[3]", "value": "4.35e+08"}, {"measurement": "intensity (mass spectrometry)", "setting": "[4]", "value": "3.72e+10"}, {"measurement": "L/D Ratio", "setting": "[5]", "value": 3.54}, {"measurement": "L/D Ratio", "setting": "[6]", "value": 2.89}, {"measurement": "L/D Ratio", "setting": "[7]", "value": 2.08}, {"measurement": "L/D Ratio", "setting": "[8]", "value": 2.28}]}]}
